# Source: patent US20090018099
# B1: purified PKD1 (protein)
# chain: MSAPPVLRPPSPLLPVAAAAAAAAAALVPGSGPGPAPFLAPVAAPVGGISFHLQIGLSREPVLLLQDSSGDYSLAHVREMACSIVDQKFPECGFYGMYDKILLFRHDPTSENILQLVKAASDIQEGDLIEVVLSASATFEDFQIRPHALFVHSYRAPAFCDHCGEMLWGLVRQGLKCEGCGLNYHKRCAFKIPNNCSGVRRRRLSNVSLTGVSTIRTSSAELSTSAPDEPLLQKSPSESFIGREKRSNSQSYIGRPIHLDKILMSKVKVPHTFVIHSYTRPTVCQYCKKLLKGLFRQGLQCKDCRFNCHKRCAPKVPNNCLGEVTINGDLLSPGAESDVVMEEGSDDNDSERNSGLMDDMEEAMVQDAEMAMAECQNDSGEMQDPDPDHEDANRTISPSTSNNIPLMRVVQSVKHTKRKSSTVMKEGWMVHYTSKDTLRKRHYWRLDSKCITLFQNDTGSRYYKEIPLSEILSLEPVKTSALIPNGANPHCFEITTANVVYYVGENVVNPSSPSPNNSVLTSGVGADVARMWEIAIQHALMPVIPKGSSVGTGTNLHRDISVSISVSNCQIQENVDISTVYQIFPDEVLGSGQFGIVYGGKHRKTGRDVAIKIIDKLRFPTKQESQLRNEVAILQNLHHPGVVNLECMFETPERVFVVMEKLHGDMLEMILSSEKGRLPEHITKFLITQILVALRHLHFKNIVHCDLKPENVLLASADPFPQVKLCDFGFARIIGEKSFRRSVVGTPAYLAPEVLRNKGYNRSLDMWSVGVIIYVSLSGTFPFNEDEDIHDQIQNAAFMYPPNPWKEISHEAIDLINNLLQVKMRKRYSVDKTLSHPWLQDYQTWLDLRELECKIGERYITHESDDLRWEKYAGEQGLQYPTHLINPSASHSDTPETEETEMKALGERVSIL
# Experiments:
# [1] = molecular target: recombinant GST-Flag-CERT(1-138) wild type fusion protein, produced in E. coli [GST: P08515]
# [2] = molecular target: recombinant GST-Flag-CERT-S132A(1-138) fusion protein, produced in E. coli [GST: P08515]
protein,measurement,setting,value
B1,"incorporation of radioactivity (in vitro kinase assay with [gamma-32P]-ATP, PhosphoImager)",[1],incorporation of radioactivity is detected
same,"incorporation of radioactivity (in vitro kinase assay with [gamma-32P]-ATP, PhosphoImager)",[2],This is significantly impaired in the case of the CERT-S132A fusion protein
